# Assay results published in paper PMC10397247.
# Like-named read-outs stand apart in the source and are kept apart here.
# T1: O8-bS
# T1 chain: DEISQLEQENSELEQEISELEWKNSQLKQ
# T2: O5-bS
# T2 chain: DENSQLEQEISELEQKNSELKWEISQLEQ
# T3: O2-bS
# T3 chain: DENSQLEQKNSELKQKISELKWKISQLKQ
# T4: O15-bS
# T4 chain: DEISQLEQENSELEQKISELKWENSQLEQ
# T5: O6-bS
# T5 chain: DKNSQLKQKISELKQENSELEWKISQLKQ
# T6: O7-bS
# T6 chain: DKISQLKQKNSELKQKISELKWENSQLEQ
# T7: O4-bS
# T7 chain: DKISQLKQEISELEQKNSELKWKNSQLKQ
# T8: O16-bS
# T8 chain: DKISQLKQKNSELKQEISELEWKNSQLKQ
# T9: O3-bS
# T9 chain: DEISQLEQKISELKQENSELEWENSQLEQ
# T10: O9-bS
# T10 chain: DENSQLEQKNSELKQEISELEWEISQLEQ
# T11: 4H1985-bN
# T11 chain: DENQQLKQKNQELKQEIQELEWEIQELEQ
# T12: 4H1804-bN
# T12 chain: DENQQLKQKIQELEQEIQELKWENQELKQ
# T13: 4H584-bN
# T13 chain: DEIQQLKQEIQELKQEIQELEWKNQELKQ
# T14: 4H3172-bN
# T14 chain: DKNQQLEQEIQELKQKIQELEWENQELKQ
# T15: 4H570-bN
# T15 chain: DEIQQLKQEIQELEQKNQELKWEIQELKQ
# T16: 4H619-bN
# T16 chain: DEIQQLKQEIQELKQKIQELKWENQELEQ
# T17: 4H3129-bN
# T17 chain: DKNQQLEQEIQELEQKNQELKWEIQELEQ
# T18: 4H3974-bN
# T18 chain: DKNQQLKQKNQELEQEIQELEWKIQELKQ
# T19: 4H3638-bN
# T19 chain: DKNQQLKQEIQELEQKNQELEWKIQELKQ
# T20: 4H3817-bN
# T20 chain: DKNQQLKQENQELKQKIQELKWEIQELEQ
# T21: 4H850-bN
# T21 chain: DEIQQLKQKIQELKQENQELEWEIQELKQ
# T22: 4H906-bN
# T22 chain: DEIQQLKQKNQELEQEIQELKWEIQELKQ
# T23: 4H3631-bN
# T23 chain: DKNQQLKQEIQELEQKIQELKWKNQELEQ
# T24: 4H3414-bN
# T24 chain: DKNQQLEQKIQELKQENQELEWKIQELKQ
# T25: Q8-AA
# T25 chain: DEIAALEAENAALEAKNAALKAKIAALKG
# T26: Q7-AA
# T26 chain: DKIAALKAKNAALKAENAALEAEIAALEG
# T27: 4H48-bH
# T27 chain: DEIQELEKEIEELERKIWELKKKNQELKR
# T28: O6-bP
# T28 chain: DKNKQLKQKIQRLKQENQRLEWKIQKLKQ
# T29: 4H491-bH
# T29 chain: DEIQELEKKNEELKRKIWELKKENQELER
# T30: 4H342-bH
# T30 chain: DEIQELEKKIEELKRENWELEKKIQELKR
# T31: 4H496-bH
# T31 chain: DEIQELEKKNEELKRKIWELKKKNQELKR
# T32: 4H3632-bH
# T32 chain: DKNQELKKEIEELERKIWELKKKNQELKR
# T33: 4H249-AA
# T33 chain: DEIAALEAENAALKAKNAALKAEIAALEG
# T34: 4H1867-AA
# T34 chain: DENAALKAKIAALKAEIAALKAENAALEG
# T35: 4H2699-AA
# T35 chain: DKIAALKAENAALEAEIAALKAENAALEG
# T36: 4H2774-AA
# T36 chain: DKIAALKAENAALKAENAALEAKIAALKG
# T37: 4H3049-AA
# T37 chain: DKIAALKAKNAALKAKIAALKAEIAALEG
# T38: 4H3939-AA
# T38 chain: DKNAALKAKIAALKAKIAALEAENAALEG
# T39: 4H2903-AA
# T39 chain: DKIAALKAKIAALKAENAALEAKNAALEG
# T40: 4H1913-AA
# T40 chain: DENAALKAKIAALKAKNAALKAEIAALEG
# T41: 4H2961-AA
# T41 chain: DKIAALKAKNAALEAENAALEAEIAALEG
# T42: 4H3595-AA
# T42 chain: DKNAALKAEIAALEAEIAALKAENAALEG
# T43: 4H341-AA
# T43 chain: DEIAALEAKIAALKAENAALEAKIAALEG
# T44: 4H446-AA
# T44 chain: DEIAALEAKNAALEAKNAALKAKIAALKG
# T45: 4H483-AA
# T45 chain: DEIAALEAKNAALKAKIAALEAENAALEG
# T46: 4H3782-AA
# T46 chain: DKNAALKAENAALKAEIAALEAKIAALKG
# T47: 4H3629-AA
# T47 chain: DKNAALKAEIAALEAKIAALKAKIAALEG
# T48: 4H2621-AA
# T48 chain: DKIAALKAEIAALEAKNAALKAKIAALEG
# T49: 4H3969-AA
# T49 chain: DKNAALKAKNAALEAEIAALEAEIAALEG
# T50: 4H380-AA
# T50 chain: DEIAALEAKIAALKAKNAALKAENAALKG
# T51: 4H63-AA
# T51 chain: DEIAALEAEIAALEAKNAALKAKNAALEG
# T52: 4H464-AA
# T52 chain: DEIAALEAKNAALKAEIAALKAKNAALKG
# T53: 4H2728-AA
# T53 chain: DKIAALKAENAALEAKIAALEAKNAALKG
# T54: 4H2608-AA
# T54 chain: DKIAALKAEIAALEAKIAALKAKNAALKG
# T55: 4H3414-AA
# T55 chain: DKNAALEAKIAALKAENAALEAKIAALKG
# T56: 4H1558-AA
# T56 chain: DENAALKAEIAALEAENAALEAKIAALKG
# T57: 4H2580-AA
# T57 chain: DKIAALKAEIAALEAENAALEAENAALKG
# T58: 4H3129-AA
# T58 chain: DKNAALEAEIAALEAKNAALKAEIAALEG
# Key:
# [1] = target: T1, O8-bS; assay: two-hybrid library CCNG1;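 note: natural log of median RNA to DNA barcode read ratio; higher means stronger binding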
# [2] = target: T2, O5-bS; assay: two-hybrid library CCNG1;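 note: natural log of median RNA to DNA barcode read ratio; higher means stronger binding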
# [3] = target: T3, O2-bS; assay: two-hybrid library CCNG1;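 note: natural log of median RNA to DNA barcode read ratio; higher means stronger binding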
# [4] = target: T4, O15-bS; assay: two-hybrid library CCNG1;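 note: natural log of median RNA to DNA barcode read ratio; higher means stronger binding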
# [5] = target: T5, O6-bS; assay: two-hybrid library CCNG1;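 note: natural log of median RNA to DNA barcode read ratio; higher means stronger binding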
# [6] = target: T6, O7-bS; assay: two-hybrid library CCNG1;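 note: natural log of median RNA to DNA barcode read ratio; higher means stronger binding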
# [7] = target: T7, O4-bS; assay: two-hybrid library CCNG1
# [8] = target: T8, O16-bS; assay: two-hybrid library CCNG1
# [9] = target: T9, O3-bS; assay: two-hybrid library CCNG1
# [10] = target: T10, O9-bS; assay: two-hybrid library CCNG1
# [11] = target: T11, 4H1985-bN; assay: two-hybrid library CCNG1
# [12] = target: T12, 4H1804-bN; assay: two-hybrid library CCNG1
# [13] = target: T13, 4H584-bN; assay: two-hybrid library CCNG1
# [14] = target: T14, 4H3172-bN; assay: two-hybrid library CCNG1
# [15] = target: T15, 4H570-bN; assay: two-hybrid library CCNG1
# [16] = target: T16, 4H619-bN; assay: two-hybrid library CCNG1
# [17] = target: T17, 4H3129-bN; assay: two-hybrid library CCNG1
# [18] = target: T18, 4H3974-bN; assay: two-hybrid library CCNG1
# [19] = target: T19, 4H3638-bN; assay: two-hybrid library CCNG1
# [20] = target: T20, 4H3817-bN; assay: two-hybrid library CCNG1
# [21] = target: T21, 4H850-bN; assay: two-hybrid library CCNG1
# [22] = target: T22, 4H906-bN; assay: two-hybrid library CCNG1
# [23] = target: T23, 4H3631-bN; assay: two-hybrid library CCNG1
# [24] = target: T24, 4H3414-bN; assay: two-hybrid library CCNG1
# [25] = target: T25, Q8-AA; assay: two-hybrid library CCmax; details: mean of both orientations
# [26] = target: T26, Q7-AA; assay: two-hybrid library CCmax
# [27] = target: T27, 4H48-bH; assay: two-hybrid library CCNG1
# [28] = target: T28, O6-bP; assay: two-hybrid library CCNG1
# [29] = target: T29, 4H491-bH; assay: two-hybrid library CCNG1
# [30] = target: T30, 4H342-bH; assay: two-hybrid library CCNG1
# [31] = target: T31, 4H496-bH; assay: two-hybrid library CCNG1
# [32] = target: T32, 4H3632-bH; assay: two-hybrid library CCNG1
# [33] = target: T33, 4H249-AA; assay: two-hybrid library CCmax; details: mean of both orientations
# [34] = target: T34, 4H1867-AA; assay: two-hybrid library CCmax
# [35] = target: T35, 4H2699-AA; assay: two-hybrid library CCmax; details: mean of both orientations
# [36] = target: T36, 4H2774-AA; assay: two-hybrid library CCmax; details: mean of both orientations
# [37] = target: T37, 4H3049-AA; assay: two-hybrid library CCmax; details: mean of both orientations
# [38] = target: T38, 4H3939-AA; assay: two-hybrid library CCmax; details: mean of both orientations
# [39] = target: T39, 4H2903-AA; assay: two-hybrid library CCmax; details: mean of both orientations
# [40] = target: T40, 4H1913-AA; assay: two-hybrid library CCmax; details: mean of both orientations
# [41] = target: T41, 4H2961-AA; assay: two-hybrid library CCmax; details: mean of both orientations
# [42] = target: T42, 4H3595-AA; assay: two-hybrid library CCmax; details: mean of both orientations
# [43] = target: T43, 4H341-AA; assay: two-hybrid library CCmax; details: mean of both orientations
# [44] = target: T44, 4H446-AA; assay: two-hybrid library CCmax; details: mean of both orientations
# [45] = target: T45, 4H483-AA; assay: two-hybrid library CCmax; details: mean of both orientations
# [46] = target: T46, 4H3782-AA; assay: two-hybrid library CCmax; details: mean of both orientations
# [47] = target: T47, 4H3629-AA; assay: two-hybrid library CCmax; details: mean of both orientations
# [48] = target: T48, 4H2621-AA; assay: two-hybrid library CCmax; details: mean of both orientations
# [49] = target: T49, 4H3969-AA; assay: two-hybrid library CCmax; details: mean of both orientations
# [50] = target: T50, 4H380-AA; assay: two-hybrid library CCmax; details: mean of both orientations
# [51] = target: T51, 4H63-AA; assay: two-hybrid library CCmax; details: mean of both orientations
# [52] = target: T52, 4H464-AA; assay: two-hybrid library CCmax; details: mean of both orientations
# [53] = target: T53, 4H2728-AA; assay: two-hybrid library CCmax; details: mean of both orientations
# [54] = target: T54, 4H2608-AA; assay: two-hybrid library CCmax
# [55] = target: T55, 4H3414-AA; assay: two-hybrid library CCmax; details: mean of both orientations
# [56] = target: T56, 4H1558-AA; assay: two-hybrid library CCmax
# [57] = target: T57, 4H2580-AA; assay: two-hybrid library CCmax; details: mean of both orientations
# [58] = target: T58, 4H3129-AA; assay: two-hybrid library CCmax; details: mean of both orientations
binder,measurement,setting,value
DEISQLEQENSELEQKISELKWENSQLEQ [O15-bS],interaction score,[1],-1.05
same,interaction score,[2],-1.13
same,interaction score,[3],-0.919
same,interaction score,[4],-0.724
same,interaction score,[5],-0.0139
same,interaction score,[6],-0.978
same,interaction score,[7],-0.754
same,interaction score,[8],1.93
same,interaction score,[9],-3.1
same,interaction score,[10],-0.877
DENQQLKQKIQELEQEIQELKWENQELKQ [4H1804-bN],interaction score,[11],0.201
same,interaction score,[12],1.58
same,interaction score,[13],0.249
same,interaction score,[14],-0.368
same,interaction score,[15],-0.363
same,interaction score,[16],-1.34
same,interaction score,[17],0.0855
same,interaction score,[18],-1.87
same,interaction score,[19],-0.805
same,interaction score,[20],-0.425
same,interaction score,[21],0.194
same,interaction score,[22],-0.241
same,interaction score,[23],0.112
same,interaction score,[24],-0.563
DKIAALKAKNAALKAENAALEAEIAALEG [Q7-AA],interaction score,[25],2.38
same,interaction score,[26],-1.59
DEIQELEKEIEELERKIWELKKKNQELKR [4H48-bH],interaction score,[27],1.21
same,interaction score,[28],-0.138
same,interaction score,[29],2.29
DEIAALEAEIAALEAENAALEAENAALEG [Q3-AA],interaction score,[25],-1.09
same,interaction score,[26]; mean of both orientations,-1.36
DEIQELEKKIEELKRENWELEKKIQELKR [4H342-bH],interaction score,[30],1.38
same,interaction score,[27],-0.0388
same,interaction score,[31],0.0247
same,interaction score,[32],1.55
same,interaction score,[29],1.47
DENAALKAEIAALEAENAALEAKIAALKG [4H1558-AA],interaction score,[33],1.51
same,interaction score,[34],-1.23
same,interaction score,[35],-0.582
same,interaction score,[36],-0.715
same,interaction score,[37],1.32
same,interaction score,[38],-0.411
same,interaction score,[39],-0.294
same,interaction score,[40],1.75
same,interaction score,[41],-1.19
same,interaction score,[42],-1.53
same,interaction score,[43],1.27
same,interaction score,[44],-0.543
same,interaction score,[45],0.272
same,interaction score,[46],-0.467
same,interaction score,[47],0.444
same,interaction score,[48],1.29
same,interaction score,[49],-1.28
same,interaction score,[50],1.48
same,interaction score,[51],-0.799
same,interaction score,[52],0.907
same,interaction score,[53],-0.226
same,interaction score,[54],-1.1
same,interaction score,[55],1.1
same,interaction score,[56],0.452
same,interaction score,[57],-1.57
same,interaction score,[58],2.15
